Values belong to the molecule of their own block, whether it stands above or below them.
B1: VWF-A1 mutant A1_mut (D1323A/R1334A/Q1367A) (domain or fragment)
chain: QEPGGLVVPPTDAPVSPTTLYVEDISEPPLHDFYCSRLLDLVFLLDGSSRLSEAEFEVLKAFVVDMMERLRISQKWVRVAVVEYHAGSHAYIGLKDAKRPSELRRIASQVKYAGSQVASTSEVLKYTLFAIFSKIDRPEASRITLLLMASQEPQRMSRNFVRYVQGLKKKKVIVIPVGIGPHANLKQIRLIEKQAPENKAFVLSSVDELEQQRDEIVSYLCDLAPEAPPPTLPPD
notes: von Willebrand factor, A1 domain, residues Q1238-D1472, with D1323A, R1334A and Q1367A; source: HEK293F cells, culture medium collected, purified (Ni2+-Hi-Trap chelating column); not shown: His tag, N-terminal, kept
B2: recombinant VWF-A2 (von Willebrand factor A2 domain, amino acids M1473-G1672), wild type (domain or fragment)
chain: MAQVTVGPGLLGVSTLGPKRNSMVLDVAFVLEGSDKIGEADFNRSKEFMEEVIQRMDVGQDSIHVTVLQYSYMVTVEYPFSEAQSKGDILQRVREIRYQGGNRTNTGLALRYLSDHSFLVSQGDREQAPNLVYMVTGNPASDEIKRLPGDIQVVPIGVGPNANVQELERIGWPNAPILIQDFETLPREAPDLVLQRCCSG
modifications: biotinylated in the BLI assay (site not stated); not said to be biotinylated in the AFM assay
notes: von Willebrand factor, A2 domain, residues M1473-G1672; cloned from a full-length VWF plasmid (MiaoLingBio); Secreted into the medium of HEK293F cells; The discussion calls the host HEK293 cells; source: HEK293F cells, culture medium collected, purified (Ni2+-Hi-Trap chelating column); not shown: His tag, N-terminal, kept

Legend:
[1] = biological target: von Willebrand factor A2 G1481-R1668 (Homo sapiens) (UniProt P04275); details: cited from earlier work
[2] = biological target: B2; experiment: atomic force microscopy (adhesion frequency and rupture force); VWF-A2 (15 ug/mL) held on the cantilever tip and VWF-A1 or its variants (15 ug/mL) on polystyrene dishes, each through adsorbed mouse anti-His mAb; blocked with 2% BSA; approach-retraction speed 200 nm/s in 2% BSA; 100 contact cycles a point; details: both partners purified
[3] = biological target: T1, recombinant VWF-A1 (von Willebrand factor A1 domain, amino acids Q1238-D1472), wild type (UniProt P04275 1238-1472); experiment: BLI; biotinylated A2 (10 ug/mL) immobilised on streptavidin biosensors, quenched with biocytin; A1 125-4000 nM in solution; Octet R8, 30 °C, 1000 rpm; PBS with 0.02% Tween-20 and 0.1% BSA; global fit to a 1:1 Langmuir model; details: both partners purified
T1 construct: von Willebrand factor, A1 domain, residues Q1238-D1472; cloned from a full-length VWF plasmid (MiaoLingBio); Secreted into the medium of HEK293F cells; The tag is 6xHis to judge from the anti-6xHis antibody used for capture; also called WT A1; WT VWF-A1; source: HEK293F cells, culture medium collected, purified (Ni2+-Hi-Trap chelating column); not shown: His tag, N-terminal, kept

[4] = biological target: B1; experiment: as above; details: both partners purified

Molecule: von Willebrand factor A1 A1 (from UniProt P04275)
- Kd [1]: 0.0649 µM

Molecule: B1
- adhesion frequency [2]: 14.5%
- average rupture force [2]: 41.5 pN
- central peak value (XC) of the rupture force distribution [2]: 35 pN

Molecule: B2
- Kd [3]: 2.16 µM
- koff [3]: 0.037 s⁻¹
- kon [3]: 17000 M⁻¹ s⁻¹
- Kd [4]: 6.1 µM
- koff [4]: 0.081 s⁻¹
- kon [4]: 13000 M⁻¹ s⁻¹

- Kd [3]: 4.2 µM
- koff [3]: 0.046 s⁻¹
- kon [3]: 11000 M⁻¹ s⁻¹
B3: VWF-A2 mutant A2_mut (V1546A/R1575A/E1598A) (domain or fragment)
chain: MAQVTVGPGLLGVSTLGPKRNSMVLDVAFVLEGSDKIGEADFNRSKEFMEEVIQRMDVGQDSIHVTVLQYSYMATVEYPFSEAQSKGDILQRVREIRYQGGNATNTGLALRYLSDHSFLVSQGDRAQAPNLVYMVTGNPASDEIKRLPGDIQVVPIGVGPNANVQELERIGWPNAPILIQDFETLPREAPDLVLQRCCSG
notes: von Willebrand factor, A2 domain, residues M1473-G1672, with V1546A, R1575A and E1598A; source: HEK293F cells, culture medium collected, purified (Ni2+-Hi-Trap chelating column); not shown: His tag, N-terminal, kept
